Results: publication PMC11289882, “Site-directed allostery perturbation to probe the negative regulation of hypoxia inducible factor-1α” (RSC Chemical Biology, 2024)

Experiments:
[1] = molecular target: CITED2 218-256 218-256 (Homo sapiens) (UniProt Q99967); assay: ITC
[2] = molecular target: CITED2ΔN 224-256 (Homo sapiens) (UniProt Q99967); assay: ITC
[3] = molecular target: Flu-HIF-1α 786-826 (Homo sapiens) (UniProt Q16665); assay: anisotropy
[4] = molecular target: CITED2 218-256 218-256 (Homo sapiens) (UniProt Q99967); assay: fluorescence anisotropy competition
[5] = molecular target: CITED2ΔN 224-256 (Homo sapiens) (UniProt Q99967); assay: fluorescence anisotropy competition

Chain of p300 TAZ1 330-420, Q09472 (Q09472 330-420): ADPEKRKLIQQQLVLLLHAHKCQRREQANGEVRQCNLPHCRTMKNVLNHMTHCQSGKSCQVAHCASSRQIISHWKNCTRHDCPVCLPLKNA
Chain of CITED2 218-256 218-256 (Homo sapiens) (Q99967 218-256): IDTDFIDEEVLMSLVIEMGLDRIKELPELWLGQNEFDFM
Chain of CITED2ΔN 224-256 (Homo sapiens) (Q99967 224-256, stated change not applied): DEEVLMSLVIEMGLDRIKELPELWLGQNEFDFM
Chain of Flu-HIF-1α 786-826 (Homo sapiens) (Q16665 786-826): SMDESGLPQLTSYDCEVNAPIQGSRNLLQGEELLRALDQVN

In the case of p300 TAZ1 330-420, Q09472, the Kd [1] is reported as 0.0106 µM, the Kd [2] is reported as 0.0505 µM and the Kd [3] is reported as 0.064 µM. For the same substance, the Kd [4] was 0.002 µM and the Kd [5] was 0.086 µM.
